Experiment [1] concerns the target A. thaliana Z-B dimer (AtH2A.Z/AtH2B dimer) (Arabidopsis thaliana). In words: ITC; AtChz1b (253-463) with A. thaliana histone dimers in 0.1 M NaCl. Background: In ITC the heat of successive injections is recorded.
The target is the same in experiment [2]. Kind of experiment: ITC; AtChz1b (253-463) with A. thaliana histone dimers in 0.25 M NaCl.
Experiment [3] addresses single chain H2A-H2B with H2A P50A/N91G (yeast). In words: ITC; 0.2 M NaCl (Table 1); Swc2-Z or Chz1-M injected into single-chain histone dimers; otherwise as the ITC methods (25°C, 20 mM MES pH 6.0).
Experiment [4] concerns the target single-chain H2A.Z-H2B with H2A.Z A57P/G98N (yeast). The experiment is described as above.
Experiment [5] addresses yeast single chain H2A-H2B (yeast). The experiment is described as above.
Experiment [6] concerns the target yeast single-chain H2A.Z-H2B (yeast). The experiment is described as above.

In general, Kd refers to the concentration at which binding is half-saturated. Read a low Kd as tighter binding. For orientation: stoichiometry N means a count of units in the complex or per binding partner.

Regarding “AtChz1b (residues 253–463) (domain or fragment)”, the Kd in experiment [1] is 50 nM; in experiment [2] it was 19.9 µM.
For “Swc2-Z, the 1–136 segment of the Swc2 subunit of the SWR1 complex (domain or fragment)”, the dissociation constant (Kd) in experiment [3] turned out to be 170 nM; in experiment [4] it was 40 nM; in experiment [6] it was 40 nM. In addition, the stoichiometry N stood at 1 sites in experiment [3], 0.8 sites in experiment [4], 0.9 sites in experiment [5] and 1.1 sites in experiment [6].
